In patent publication US20180016328A1 (WASHINGTON UNIVERSITY, published 2018):

B1: SC1 scFv HJ8.5 HA (scFv)
scFv: DIVLTQSPASLAVSLGQRATISCRASQSVSTSRYSYIHWYQQKPGQPPKLLIKYASNLESGVPARFSGSGSGTDFTLNIHPLEEEDAATYYCHHSWEIPLTFGAGTKLELKGGGSEVKVEESGGGLVQPGGSMKLSCVVSGFTFSNYWVNWVRQSPEKGLEWVAQIRLKSDNYATHYEESVKGRFTISRDDSKSSVYLQMNNLRAEDSGIYYCTNWEDYWGQGTTLTVSSYPYDVPDYA
notes: Encoded with an N-terminal secretory signal peptide (SP), left out here because the secreted protein was tested; also called HJ8.5 scFv SC1
B2: SC3 scFv HJ8.5 HA (scFv)
scFv: DIVLTQSPASLAVSLGQRATISCRASQSVSTSRYSYIHWYQQKPGQPPKLLIKYASNLESGVPARFSGSGSGTDFTLNIHPLEEEDAATYYCHHSWEIPLTFGAGTKLELKSGGGSGGGSGGGSEVKVEESGGGLVQPGGSMKLSCVVSGFTFSNYWVNWVRQSPEKGLEWVAQIRLKSDNYATHYEESVKGRFTISRDDSKSSVYLQMNNLRAEDSGIYYCTNWEDYWGQGTTLTVSSYPYDVPDYA
notes: Encoded with an N-terminal secretory signal peptide (SP), left out here because the secreted protein was tested; also called HJ8.5 scFv SC3

Target: T1, mouse tau (mouse, UniProt P10637-2 2-430, limits assumed)
T1 construct: also called mouse brain lysate comprising tau
Assay: Western blot of mouse brain lysate probed with the scFv (FIG. 4)
Description: FIG. 4 depicts Western blots showing that the scFv's detect human but not mouse tau. Mouse brain lysate comprising tau and recombinant human tau were both run on a gel and the scFv's SC1 (A) and SC3 (B) were used to detect tau. Recombinant human tau was detected by SC1 and SC3; mouse tau was not. Anti-vinculin Western blot was used as a loading control for tissue samples.

T1 sequence (P10637 other isoform, or with tags, fused parts or gaps limits assumed): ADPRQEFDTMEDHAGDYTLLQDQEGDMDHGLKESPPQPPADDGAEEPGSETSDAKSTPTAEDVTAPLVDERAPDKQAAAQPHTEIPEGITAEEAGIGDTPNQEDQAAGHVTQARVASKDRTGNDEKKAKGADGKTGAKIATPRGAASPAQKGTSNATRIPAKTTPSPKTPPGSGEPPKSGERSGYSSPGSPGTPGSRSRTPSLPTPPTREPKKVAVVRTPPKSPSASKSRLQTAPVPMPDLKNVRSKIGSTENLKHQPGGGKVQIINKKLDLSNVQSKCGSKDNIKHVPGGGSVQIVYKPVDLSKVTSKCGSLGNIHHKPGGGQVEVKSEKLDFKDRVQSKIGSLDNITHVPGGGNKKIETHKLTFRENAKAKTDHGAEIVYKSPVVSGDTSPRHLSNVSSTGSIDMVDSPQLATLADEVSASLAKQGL

Binder | binding result
B1 | no binding
B2 | no binding
